Test results from patent publication US20160339092A1 (IMMATICS BIOTECHNOLOGIES, published 2016).

Target: T1, HLA-A*02:01 (human)
T1 construct: complexes captured on streptavidin plates and detected with anti-b2m; also called peptide-receptive MHC molecules
Assay: UV-exchange MHC ELISA; ++ = yield >=20%
Description: Candidate peptides for T cell based therapies according to the present invention were further tested for their MHC binding capacity (affinity). The individual peptide-MHC complexes were produced by UV-ligand exchange, where a UV-sensitive peptide is cleaved upon UV-irradiation, and exchanged with the peptide of interest as analyzed. Only peptide candidates that can effectively bind and stabilize the peptide-receptive MHC molecules prevent dissociation of the MHC complexes. To determine the yield of the exchange reaction, an ELISA was performed based on the detection of the light chain (β2m) of stabilized MHC complexes. The assay was performed as generally described in Rodenko et al. (Rodenko et al., 2006).
96 well MAXISorp plates (NUNC) were coated over night with 2 ug/ml streptavidin in PBS at room temperature, washed 4× and blocked for 1 h at 37° C. in 2% BSA containing blocking buffer. Refolded HLA-A*02:01/MLA-001 monomers served as standards, covering the range of 15-500 ng/ml. Peptide-MHC monomers of the UV-exchange reaction were diluted 100 fold in blocking buffer. Samples were incubated for 1 h at 37° C., washed four times, incubated with 2 ug/ml HRP conjugated anti-β2m for 1 h at 37° C., washed again and detected with TMB solution that is stopped with […]. Absorption was measured at 450 nm. […]

peptide exchange yield: 20 to 50%
B1: ALLNAILHSA (SEQ ID NO: 132) (peptide)
peptide: ALLNAILHSA
